Data on 1 molecule can be found in PMC8224933.

For this experiment, the target named is atypical chemokine receptor 3 (human (endogenous in hVSMCs)), P25106. Kind of experiment: proximity ligation; Duolink II PLA on hVSMCs fixed with 4% paraformaldehyde; two primary antibodies from differing species (1:500, 37°C, 105 min); control: omission of one primary antibody; PLA signals per cell counted; cells untreated or incubated 72 h with non-targeting, CXCR4, ACKR3 or AVPR1A siRNA. Particulars: remark: other sources report otherwise.
Chain of atypical chemokine receptor 3 (human (endogenous in hVSMCs)), P25106 (P25106 whole entry): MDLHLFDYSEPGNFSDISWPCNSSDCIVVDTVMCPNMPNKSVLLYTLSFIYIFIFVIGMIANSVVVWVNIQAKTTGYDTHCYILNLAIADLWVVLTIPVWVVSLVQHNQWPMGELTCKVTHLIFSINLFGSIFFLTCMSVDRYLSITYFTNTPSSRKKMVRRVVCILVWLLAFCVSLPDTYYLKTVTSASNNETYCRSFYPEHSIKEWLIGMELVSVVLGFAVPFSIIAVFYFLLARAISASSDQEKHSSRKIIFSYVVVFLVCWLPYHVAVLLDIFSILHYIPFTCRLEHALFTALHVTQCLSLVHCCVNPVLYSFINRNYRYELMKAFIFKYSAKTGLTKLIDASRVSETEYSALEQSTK

B1: chemokine (C-X-C motif) receptor 4, P61073 1-352 (receptor)
chain: MEGISIYTSDNYTEEMGSGDYDSMKEPCFREENANFNKIFLPTIYSIIFLTGIVGNGLVILVMGYQKKLRSMTDKYRLHLSVADLLFVITLPFWAVDAVANWYFGNFLCKAVHVIYTVNLYSSVLILAFISLDRYLAIVHATNSQRPRKLLAEKVVYVGVWIPALLLTIPDFIFANVSEADDRYICDRFYPNDLWVVVFQFQHIMVGLILPGIVILSCYCIIISKLSHSKGHQKRKALKTTVILILAFFACWLPYYIGISIDSFILLEIIKQGCEFENTVHKWISITEALAFFHCCLNPILYAFLGAKFKTSAQHALTSVSRGSSLKILSKGKRGGHSSVSTESESSSFHSS
B1 registered an increase in PLA signals after AVPR1A siRNA, % of NT siRNA of 59%.
